Assay results from publication PMC11602157, “ZNF512B binds RBBP4 via a variant NuRD interaction motif and aggregates chromatin in a NuRD complex-independent manner” (Nucleic Acids Research, 2024).
Residue numbers refer to the chain shown, from its start. Names and notes keep the numbering of the source.

B1: His-ZNF512B: purified recombinant His-ZNF512B protein (protein, UniProt Q96KM6 1-892, looked up)
Zinc finger protein 512B: MTDPFCVGGRRLPGSSKSGPGKDGSRKEVRLPMLHDPPKMGMPVVRGGQTVPGQAPLCFDPGSPASDKTEGKKKGRPKAENQALRDIPLSLMNDWKDEFKAHSRVKCPNSGCWLEFPSIYGLKYHYQRCQGGAISDRLAFPCPFCEAAFTSKTQLEKHRIWNHMDRPLPASKPGPISRPVTISRPVGVSKPIGVSKPVTIGKPVGVSKPIGISKPVSVGRPMPVTKAIPVTRPVPVTKPVTVSRPMPVTKAMPVTKPITVTKSVPVTKPVPVTKPITVTKLVTVTKPVPVTKPVTVSRPIVVSKPVTVSRPIAISRHTPPCKMVLLTRSENKAPRATGRNSGKKRAADSLDTCPIPPKQARPENGEYGPSSMGQSSAFQLSADTSSGSLSPGSRPSGGMEALKAAGPASPPEEDPERTKHRRKQKTPKKFTGEQPSISGTFGLKGLVKAEDKARVHRSKKQEGPGPEDARKKVPAAPITVSKEAPAPVAHPAPGGPEEQWQRAIHERGEAVCPTCNVVTRKTLVGLKKHMEVCQKLQDALKCQHCRKQFKSKAGLNYHTMAEHSAKPSDAEASEGGEQEERERLRKVLKQMGRLRCPQEGCGAAFSSLMGYQYHQRRCGKPPCEVDSPSFPCTHCGKTYRSKAGHDYHVRSEHTAPPPEEPTDKSPEAEDPLGVERTPSGRVRRTSAQVAVFHLQEIAEDELARDWTKRRMKDDLVPETARLNYTRPGLPTLNPQLLEAWKNEVKEKGHVNCPNDCCEAIYSSVSGLKAHLASCSKGAHLAGKYRCLLCPKEFSSESGVKYHILKTHAENWFRTSADPPPKHRSQDSLVPKKEKKKNLAGGKKRGRKPKERTPEEPVAKLPPRRDDWPPGCRDKGARGSTGRKVGVSKAPEK
modifications: His tag
notes: purified recombinant His-ZNF512B protein
B2: ZNF512B: zinc finger protein 512B; GAL-ZNF512B in the reporter assay, GFP-/FLAG-tagged in pull-downs (protein)
chain: B1 Zinc finger protein 512B
modifications: left off: GFP, end not stated, kept
B3: K423A: GAL-ZNF512B with K423A mutation, loss of NuRD binding (protein)
chain: B1 Zinc finger protein 512B with K423A
modifications: left off: GFP, end not stated, kept

Assays:
[1] = test system: DNA (sequence derived from the mouse H19 promoter); assay: EMSA; assay type: binding; conditions: purified recombinant protein, unmethylated or methylated oligos, 300 ng salmon sperm DNA competitor
Method: Expression and purification of recombinant His-ZNF512B protein was done as described ([32]). Briefly, pFastBac1 vectors were transformed into DH10Bac bacteria and viruses were generated according to the Bac-to-Bac™ Baculovirus Expression System Protocol (Invitrogen). Extracts were prepared 3 days after infection by washing the cells twice with ice cold PBS and incubation on ice for 10 min in hypotonic buffer (10 mM HEPES-KOH pH 7.9, 1.5 mM MgCl2, 10 mM KCl). After brief vortexing and centrifugation, the pellet (nuclei) was incubated for 20 min in hypertonic buffer (20 mM HEPES-KOH pH 7.9, 25% glycerol, 420 mM NaCl, 1.5 mM MgCl2, 0.2 mM EDTA). After centrifugation for 10 min at 16 000 × g the supernatant was stored at −20°C or directly used for electrophoretic mobility shift assays (EMSAs). Alternatively, the supernatant was purified by FPLC using the Äkta Start (Cytiva) via a His-Trap column (71502768) by standard procedures outlined in the instructions of the manufacturer.
EMSAs were performed as originally described ([34]) with the exception that 300 ng of salmon sperm DNA per reaction were used as an unspecific competitor. […]

[2] = test system: 4xUAS-tk-luc reporter in HEK293T cells; assay: Luciferase reporter assay; assay type: cell-based; conditions: GAL fusion, 72 h, three biological replicates
Method: Per well of a 6-well plate, 1.5 × 10^5 HEK293T cells were seeded and transfected on the next day using 1 μg of 4xUAS-tk-luc reporter plasmid, 0.5 μg GAL expression vector and 0.5 μg pCMV-lacZ vector for normalization. Cells were directly lysed in well after 72 h with 200 μl Lysis buffer (25 mM Tris/Cl pH 7.5, 8 mM MgCl2, 1 mM EDTA, 1% Triton™ X-100, 15% glycerin, 1 mM DTT) for 15 min at RT. Supernatants were used to measure luciferase activity by mixing 100 μl 1:1 with 90 mg/L D-Luciferin/0.8 mM ATP and quantifying emitted light after 5 s incubation with an Orion L plate reader (Titertek-Berthold). Values were normalized to β-galactosidase activity by adding 5 μL supernatant to 900 μl LacZ buffer (50 mM Na2HPO4, 10 mM KCl, 0.1 mM MgSO4, pH 7) and 100 μl 4 g/L OPNG/0.1 M KPO4. When a color change of the mixture occurred, absorbance at 420 nm was measured.

[3] = test system: NuRD complex members; assay: lf-qMS after GFP-Trap IP; assay type: binding; conditions: GFP-Trap IP vs GFP
Method: Preparation of Micrococcal nuclease (MNase)-digested nuclear extracts was performed as previously described ([15–17],[32]). Briefly, nuclei were isolated by incubation with PBS containing 0.3% Triton™ X-100 for 10 min at 4°C and washed in PBS, before being resolved in 500 μl freshly prepared Ex100 buffer (10 mM HEPES pH 7.6, 100 mM NaCl, 1.5 mM MgCl2, 0.5 mM EGTA, 10% glycerol, 10 mM β-glycerol phosphate, 1 mM Dithiothreitol (DTT), 2 mM CaCl2). Chromatin was then digested with 1.5 U MNase (sufficient for 4 × 10^7 cells, Sigma-Aldrich) for 20 min at 26°C. Digestion was stopped by adding 10 mM EGTA and transferring the sample to 4°C. […]
For label-free quantitative mass spectrometry (lf-qMS), precipitated proteins were eluted by incubation of beads with Elution Buffer (2 M urea, 50 mM Tris/Cl pH 7.5, 2 mM DTT, 20 μg/ml Trypsin Gold [Promega]) for 30 min at 37°C shaking at 1400 rpm in the dark. […]
After tryptic digest (see MNase IP), peptides were desalted on StageTips ([36]) and analysed by nanoflow liquid chromatography on an EASY-nLC 1000 system (Thermo Fisher Scientific) coupled online to a Q Exactive Plus mass spectrometer (Thermo Fisher Scientific). […]
The raw files were processed with MaxQuant ([37]) (version 1.6.5.0) against a human uniprot database (81194 entries). […] The match between run option and the LFQ quantitation were activated. […]

[4] = test system: FLAG-tagged ZNF512B; assay: Oligomerization: GFP-Trap IP and FLAG immunoblot; assay type: binding; conditions: co-transfection of GFP- and FLAG-tagged ZNF512B constructs, HeLaK cells
Method: Preparation of DNase-digested cell extracts and immunoprecipitation was performed using GFP-Trap® Magnetic Particles M-270 (Chromotek) following the manufacturer’s protocol. In brief, cells were incubated for 30 min on ice with RIPA buffer (10 mM Tris/Cl pH 7.5, 150 mM NaCl, 0.5 mM EDTA, 0.1% SDS, 1% Triton™ X-100, 1% deoxycholate) supplemented with DNase I (75 Kunitz U/ml, Thermo Fisher Scientific) and MgCl2 (2.5 mM). After centrifugation at 17 000 × g for 10 min at 4°C, lysate was transferred to a fresh tube and mixed with Dilution buffer (10 mM Tris/Cl pH 7.5, 150 mM NaCl, 0.5 mM EDTA). Lysate was then incubated with GFP-Trap® Magnetic Particles M-270 rotating for 1 h at 4°C. For peptide competition, lysate was incubated with peptide solution rotating for 1 h at 4°C before incubation with beads. After incubation, beads were washed three times with Wash buffer (10 mM Tris/Cl pH 7.5, 150 mM NaCl, 0.05% Nonidet™ P-40 Substitute, 0.5 mM EDTA), and precipitated proteins were eluted by boiling beads for 5 min in 2× SDS-sample buffer. Eluates were compared to input material via semi-dry western blotting. Details on applied antibodies and peptides are listed in the Supplementary Data.

Molecule	DNA binding [1]	repression of luciferase reporter [2]	binding to NuRD complex members by lf-qMS [3]	oligomer formation [4]
B1	DNA-binding protein (Figure 2F), independent of DNA methylation status			
B2		strong repression effect	NIM-dependent binding of ZNF512B to all known NuRD complex members was observed	able to form oligomers that are strictly dependent on the ZF domains
B3		over 50%		
